Measured values published in patent US20210403594A1 (IMMUNOGEN, published 2021).

Tests used:
human EpCAM (CD326) = molecular target: T1, human EpCAM (CD326) (human, UniProt P16422 24-314); test: flow cytometry on HSC2 cells; Geo Mean FL1 against concentration; Alexa Fluor Plus 488 goat anti-mouse IgG (Example 2)
T1 construct: whole, on cells; Antigen on the surface of the human cells used in flow cytometry and cytotoxicity assays; also called EpCAM on HSC2 cells; human-EpCAM expressing 300-19 cells
T1 sequence (looked up): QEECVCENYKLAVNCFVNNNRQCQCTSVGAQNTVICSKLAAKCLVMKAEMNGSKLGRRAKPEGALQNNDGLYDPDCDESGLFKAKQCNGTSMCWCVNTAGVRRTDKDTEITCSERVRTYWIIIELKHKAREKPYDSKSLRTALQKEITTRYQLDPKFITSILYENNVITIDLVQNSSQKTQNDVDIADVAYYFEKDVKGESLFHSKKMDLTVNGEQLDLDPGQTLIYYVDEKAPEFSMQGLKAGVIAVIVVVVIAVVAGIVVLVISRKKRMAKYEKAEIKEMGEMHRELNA

[1] = molecular target: cynomolgus EpCAM (cynomolgus monkey); test: flow cytometry on cyno kidney epithelial cells; Geo Mean FL1 against concentration; Alexa Fluor Plus 488 goat anti-mouse IgG (Example 2)
Sequence of cynomolgus EpCAM (cynomolgus monkey) (Q1WER1 24-314): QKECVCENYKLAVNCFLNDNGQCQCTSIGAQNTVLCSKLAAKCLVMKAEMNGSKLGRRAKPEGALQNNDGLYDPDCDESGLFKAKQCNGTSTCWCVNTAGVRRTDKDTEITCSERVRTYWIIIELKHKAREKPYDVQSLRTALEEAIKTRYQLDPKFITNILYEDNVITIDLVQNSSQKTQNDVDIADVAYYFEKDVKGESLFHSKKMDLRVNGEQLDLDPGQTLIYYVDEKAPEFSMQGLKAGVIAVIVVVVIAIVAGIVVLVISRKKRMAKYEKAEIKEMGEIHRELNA

Kd (human EpCAM (CD326)): 0.38 nM
Kd [1]: 0.79 nM
B1: mEpCAM23 (antibody, mouse IgG2b, kappa)
heavy: EVKLEESGPALVKPGASVRISCKASGYTFTNYYIHWVKQRPGQGLDYIGWIYPGNVYIQYNEKFKGKATLTADKSSSTAFMQLSSLTSEDSAVYFCARDGPWFAYWGQGTLVTVSSAKTTPPSVYPLAPGCGDTTGSSVTLGCLVKGYFPESVTVTWNSGSLSSSVHTFPALLQSGLYTMSSSVTVPSSTWPSQTVTCSVAHPASSTTVDKKLEPSGPISTINPCPPCKECHKCPAPNLEGGPSVFIFPPNIKDVLMISLTPKVTCVVVDVSEDDPDVRISWFVNNVEVHTAQTQTHREDYNSTIRVVSALPIQHQDWMSGKEFKCKVNNKDLPSPIERTISKIKGLVRAPQVYILPPPAEQLSRKDVSLTCLVVGFNPGDISVEWTSNGHTEENYKDTAPVLDSDGSYFIYSKLDIKTSKWEKTDSFSCNVRHEGLKNYYLKKTISRSPGK
light: DIVLTQTPFSNPVTLGTSASISCRSSKSLLHSDGFTYLYWFLQKPGQSPHLLIYQTSNLASGVPDRFSSSGSGTDFTLRISRVEAEDVGVYYCAQNLELPNTFGGGTKLEIKRADAAPTVSIFPPSSEQLTSGGASVVCFLNNFYPKDINVKWKIDGSERQNGVLNSWTDQDSKDSTYSMSSTLTLTKDEYERHNSYTCEATHKTSTSPIVKSFNRNEC
notes: also called muEpCAM-23; muEpCAM23
